The NTF2 design screens of Basanta et al. (2020)

Assay: protease stability score; higher = more stable; yeast display proteolysis, trypsin and chymotrypsin;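 further: log10 excess protease needed over predicted unfolded state with 0 meaning unfolded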

Sequence	protease stability score
DEEDVEKMVRLVRDGDWEQFARNADENVRIQIGNREVHGRNEAHKAADKLTKHIDHFRIDRYDRNGDKLDVLFRMTVNGQEVKARMYVEVHNGRVTRMEIRATSEEILKRIDEVLS	1.37
DEDDMRKWEELMRAFETGDEKKATELVDPNATFKVGDKTYHGREHFIKDLFTKVKEIHIQMRIRDIQQSGDFAVVHLVKSNHNNGKPNSDVAVVLVRMDNGKLKYVQETKDQ	0.587
DEEDLKKVVDQLIKAVVNGDVEKIVKYIDEDVEFKLGDTKYKGKEEAKKVVTKLVQVGAEVHVDHVRVKGDEAEVDTVWHIGNTEAHMTVKYVVRGDKVERVEVRWTEEVKKAIKAG	1.46
DEDAFRVWRRLLSAIRDGDEDKVRNQADENATATIGDKTWHGMTTLAHELVHEARNLRFTQRITHYSVDNGRVNADYRFTKNENGRPQEDRVLVRFVAHNGQLKSVHNTKIS	0.131
DQTDEAEKWMEHITRVLHHNDTDQMLELADENVKIDIGDKTYHGREQFSQLLRDIAERVDHFSQRIDSIRVNGDKVRIDFKNVLDHNGRKHSQQVVVEINRTNGQWRLKSLHKK	0.151
DEKQVVKVAKRVVQAVFEGDEELMKKMGKEDVEVEVGDTKYKGVDQAVDLVRKYKEFGLEFELKKYEVKGDTVTFHAKLYAGDKTIDVTVHYRADDGKMDETKVELSEEADKAFKQH	1.1
DEEEVERVAKTAMEAMKKGNEEELKKLLKEGVEYIMGDNKVHGPEEIQKMVQLVLRVGMRIEFKELRVEGDTATTNVDYQVGDKKVTVQAHAELKGGRIDRVQIDFSDEAKKHVKHG	1.17
DDKEARKFAKDYVDAMKTGDEKRIEEMVDPNVSFQIGDQTYHGREQLKQALRSRRHHADHVQVDHVEAQGDKIDIDVQFNINGRDDKVKIKIRVHNGRIKEVVIEKK	0.99
DEDEERKVVHSIMHALEKGDEQKAVDLMDPNVKVIIGDKEISGRERVRDVAQELRKRIDHLRVKTLDVKNGQARAVAEVEHNGQERRIEFNMQLDNGRVKDMRIQER	1.09
DDKERDHLRKLMEEGDFTEIAENADPNAKFVIGDKEIHGREQFQTVAKRRQERVDHFDVKRVSVSGNKVRATMVMVVDGEKIHFTVIIEIDNGRVKSVRLQYRDETVKRQIEEAMS	-0.213
DEREAASVAMRAAQAFVTGDEKTFVDNVDPNARVTVGDKHLHGREHIQDHIRKLKTRVDHHEIHDYKVHGNKATMDVRVVFDGRTRDKKIFAVAHNGRVQEMRVEDG	-0.299
DETRQAKDMVSELRKALKQGDEDKAMKLADPNVRLDVGEKDLHGRERLKEWVTEIRDKYDRVDLKVTHVHVRGNKIVVHAEVVMRRNGHQKTMTLTIVVRLQGDHLHIVEITQR	0.803
DEEKHAKEVLDKFLKIAQEGDPKKMHELVDPNATFQVGDKEVHGRESAIESLQKFLEKVDHMRLEITEVRVRGNKFNIVAKLRADINGQKVDKRLIIVFTHHNGRLQMSHLRMD	2.34
DESAHKLVHDMMDAIRQNNPERVEQLADPNVKIEYGDEVIQGRENVSTTMKEILEKQRVEYNFKRVDDHNGQVRADVEVEVEHNGEPHRDKLIVHAERHNGRIRYVELQHDG	-0.174
EDRAQENLHELLKAIQQGDEDSVESLLDKDVKIQVGDKYIHGRENYAEHVRKTRQEIRVNYRIESYSVHNGRAKMTFRANRDDNGKPETWKAQATMEVDNGRITFIHRNKRG	-0.045
DEEEVSRILKKVLTAVRKNDPDTLMRLADKNARFHYGDRTYRGREQARRWMEDVRTHADHARINSFTVTGNKARADIRFDINGEERRVDMVIVVHNGKIHDLVVEDR	1.3
DDSMVRLAHTVIDNWRQGDEKKAMELLDPNARAEIGDKTIHGREQMSDEIRKQRTEQRLDIKVKRLEDRPGHVVIDAENTNSKNGRPRTNRVQIHLTAQGDKLKRLRIQNDS	-0.05
DEHDLDKWRQVMEHNDFDKLVRLADPNVKIVVGDQEYHGREQYKELMDKLEHHVDHMELHSVSITNGEVHARLTVIINGKSIEYVFKFVVDNGKLKKLRIQFTDPEDEKIWKRAMS	1.7
DEELSKRAKHLIEMMKTGDEKEIQKQMDKDVKIDIGDKTIKGREDAAEQWRNRVEKIRWSLTIRHVNVQGNHVTMNVEVHLNVNGQPNRYTIEISFTFHNGKIVYISVSFDEDTEEKAKK	1.18
DDTAVRIWEKLLSALRTGNEQEVEKNLDPNATVVIGDKRVSGREEVKRMVRRLLTTMRLNVKSVENRDQPGHADVQYTVQFNHNGRPREDRWVVIVRVKNGKIQTVVMKENP	1.12
DKEASDHATRIAQTNNPQKAVDKADPDVKATYGNKVYNGKNQARDVAKQFDEHFDRVEVKSVDNDGETVRADVRARFNGKTMEFTFVIVMSNGHVKMLFIDVRNPEDQEDLDRLLT	-0.188
DHEEVKEFNKTLIKILETNDSKKLHELMDPNARIQIGDKDVSGRHNIHKLAEENKRRVDHFRVSRIDYHNGKVRADFTYVVNGQKHRVDMDIDITNGKIKRIIYHQR	0.011
EEHLQKTVEEMIKLIRHGNEHKVQENIDPNARIVIGEKRIRGRETFAHLLSKRHKEQRYEVREIKLTVQGEKVKVSMDVVADINGKPIRFSIDMFLHASNGKVKDIQYRISEEQRDKQQG	-0.033
DKDALRVFERFLEAVETNDPKQVQEQADPNAHFDIGDRTYHGMDEIATKMFEEQEKIHLSVQIRDVKDHGDKAVIKAEFSSERNGKPHSKTVRIEVQAHNGQMVKLVMTDDQ	-0.309
DEELYKLMEQVIKAWEENDETQLKRLADPNVKVSIGDKRVHGRDQMAEDAKRRKKQLRFNIDIKSYSVHNGRVNARATVHNDVNGQPREDTVNIQMEWSNGQLTNFNMRMDEDFLRKIRS	0.752

Sequence	protease stability score
DEDRTRRMLEKVFEYVVKGDVDHVRKHGKPNVRYEYADKKKEGEEVYKLIVKIVKKVGAEAKRREQEVKGDTMRANFQYNKGDKTVQTTAEAQYEGDKADKLRAELTDEVKKVVHQG	-0.152
DEKEQKENAKKMADAIERGDPDKLSELMDENAKVTVGDKTIHGRRQAHEWLKEFRDQADHVEIKEFTVNGNRVIIHVKVRHNGSESERVMTVSWHNGKVKSASFRSN	0.63
DDDAVRLFKEELKAEKNNNPDKIRELADPNARFKVGDKTVHGRESWARTVETRAREIRNDIDVKSYDNDNGRADIKMTVHQEENGRPQHNEASANITADNGRLKEVQIHSRP	-0.356
DEDKQRKTADEIQKVIKQGDEKKAEDLFDENAKLSIGDKFYRGKEDFKRWFRSLRDRIDHFQVKDLEVDGERAEFVVVFHVNGKNVEMVIEIHVHNGKVKHARVNPEDERKLNT	1.05
DEEEKKKKAEHAAKAFVTGDEERMNQLASPDVTATVGDQRVHGRDDMNKLLQEFKRQADHVELKSFRNDENHVTIHVRVNHNGKMDKFVVNIRMHNGQVKIIHQTSS	-0.289
DEENKHAAERLMRAIQKGDPDDMVRNMDKDAKVNIGDQQFHGREEVAKQNRKDNKEMRYHQEVKSISVDGDKVTVEATAQFTYNGQPDTFKFSFRAHLHNGRIRHLDVHFDEQTKRDQES	0.101
DQRDQRKANEIIKTNDESKLAKQADKDARLVVGNKEYHGKEQVQHFADQLEKMFDHLEITHYDSHGENFNVVAVMDVNGQRVQYYWRFRVHNGQFKYIEFRARDEETQKTIHRLLG	0.606
EEETVKRMAEHVNHALQENDPKKMNDLFDENVQVDVGDTRIHGREDLTKYVKTFKQRVDQVEIQRVDVQGNTVVILMVLEHNGHRRQVVVIMHFHNGKVKEMRVTDK	0.097
DDKDADHVQRALRNLERGDPEKADTMFDPNAHVRIGDKEIHGREQLNHWVERVHTEMRQRWDFKDVNEHENHVQIDVSITTEKNGQPRSKHVKLNARVNNGTVTSVEQQDDG	-0.164
DEDEDDKMRKLIKTNNPQEIAQNADPNVEATVGNKTYHGREQMQQIAEIFRTMADHVHVDRVDADNGHVSAHRVITVNGHKVNVKVRFNISNGRIKRQEIDVTSEQDHRELEKNYN	0.162
DEEEKKRQQEEIERLLHTGDHDRFSELMDKDVKMDVGEDRVHGRENVAKHLADEMKRIDHVNVQSVDVKGEKFDFSAQFRVNGQTVQRVIIMVQKNGKWKELSITVTDDDQLKRVES	0.092
DEEALKQAEEILTQRQTGNPQEVMKNMDKNVKFDYGDKTIHGKENLEKDVEKERTEMRYEIKSVEFRARGNKVVADFRATFNVNGHPFSVRVVFIAHFEDGKIKKATENVSEEQRKKMKS	0.084
DHDLNQQAQQWVRNFNNGDEDKLQDYADPNVRFQIGDEQVHGREEYKSRVKKKRKHARFRIRVREIDAQGEHVHVKADIIQNINGRPMDDHVIFHFEVRNGKLKSLKLRVDPEKQRELEK	0.417
DEDDMRRLEQLFRDIQTGNPERVRTLVDKNAELRVGDKRIKGREDVHRSVKKNRDEIRYSIDRLSADVKGDQVEMTVTAQKEHNGEPRSFKFTMTAKFRNGKLQHLDVHEEK	-0.297
DEELQDRFRRMIRIREEGDEQKLNEQVDPNVRLRVGDKEIKGREQLEEDQKRKNKQMRIRIKHLEVEAQGNKVRVSIHMTMRVNGRPFHFEFTANYTYHNGKLKHADVNIDPDFVREVHQ	0.027
DHRVEEVFRRYLEAFQDNNPEKAMRLVDPNAKLSVGDTTLDGREDIKKFVRTRHNEQRVKYEIKQIEVDGDKIRVVADLKNQHNGTPDRDTVKMSASVRNGKIKDLKQTTDK	-0.132
DEESNHDVARKLMRALETGDPDKLRELADKHARITVGEKTIHGREDASRFAKELRDRIDHATVKHMDVDGNKVVINMTVRVNGRDLEVFVTAIVTNGRIKHIRFQYTDEDKNKEVEG	1.18
DEKDKATKMMETIKQAWDRNNPQQVASQFDKDAHIRVGDKMIHGHEQLKEFVQDVLDTYDHIKLTVTSVKQHNGRVVIVVQVHLEHNGRNDTRHYVVIIEVDNGHIRIKTMVDK	1.16
DQEVREYIKRVYSTGDPDELNKLIDKDVRMRVGDKEVEGRETVQTIMRDWMTRVDDIKVHSYDVRGNKANYDAQYVFDGRSARFVIHIEFHNGRVKHVVVEATNEEVKQLLRDMLS	1.33
DEEDERKFAEEFHKVLQTNNEEEIRKMFDPNVTAHVGDKRIHGREEVATVIARLARRADHIRLEHVEVENGRITMTLRADVDGRDVQFRVILTVRNGVVQEVQFDYTSEDQFREIQK	1.59
DENLERQASRLISALLDNDPDLAVELVDENVKVQIGDKTVHGRETVHRHIETLVHHMRMDLDRFHVEVSGEKAKITLDVRFKINGKPIKDTLDVFFTAHNGKIKSVHFRMPEEHKKQVDR	0.899
DKEALRVFEKMLQAQRTGNPQEVRKQVDENARFQVGDKTIQGRERFAEDVDRQRKNMRLDYKHIDNKDHNGQAQADAKVRVNVNGRPIEHSAQFHFSAHNGKLVQLHVQMDEDVRRQIEK	-0.233
DEEKMKEFVKNLNTGNNHRLRKMMDEDVKVVVGDKRYKGDEQAAQFWRRILEQADDIRVNDFKVSGNTAHVDVVINWNGKHIVLDVHVEIHNGKVKQIRIEVRDEEVKRAQEEMES	1.25
DEKKEEQWVRDVKKHAETGNWHDFWRQADPNVRFQVGDTTLRGREEAVKVAEDMRRQVDHQRVEHVDAHNGKVTVDAVLDINGRQQKVEYVVEMHNGRIKRINFSYS	-0.142
DDEVRKVVHEWWKALRTGDPDLAKKLADPNAEFQIGDKRVHGMKDFARKLTEEHKESEIEINIRHIDAQGDNVNVHFEFQIDRNGRPQTNTQTVHLRVNNGKITRFEMRTQS	1.16
